In US20250051821:

T1: IFF05588
T1 chain: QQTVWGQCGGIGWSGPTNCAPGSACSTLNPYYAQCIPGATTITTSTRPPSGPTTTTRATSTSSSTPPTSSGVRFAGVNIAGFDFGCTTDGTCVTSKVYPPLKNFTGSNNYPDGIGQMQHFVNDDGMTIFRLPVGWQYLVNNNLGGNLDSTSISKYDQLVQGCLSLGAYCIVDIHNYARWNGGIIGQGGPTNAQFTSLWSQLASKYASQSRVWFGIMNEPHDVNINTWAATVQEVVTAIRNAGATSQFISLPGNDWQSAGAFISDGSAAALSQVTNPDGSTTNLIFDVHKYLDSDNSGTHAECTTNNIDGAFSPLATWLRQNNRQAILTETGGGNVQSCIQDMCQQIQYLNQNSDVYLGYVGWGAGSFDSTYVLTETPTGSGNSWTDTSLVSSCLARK


Target: T1, IFF05588

Protein | Relative late peak area (centered, scaled, averaged over 5, 10 and 15 min) | Relative late peak area (centered, scaled, averaged over doses, 24 h; sample diluted 1-fold) | Relative late peak area (centered, scaled, averaged over doses, 24 h; sample diluted 10-fold) | Relative late peak area (reverse phase chromatography, 24 h) | Relative late peak area (centered, scaled, averaged over doses, 24 h; sample diluted 2-fold)
IFF21367 (protein) QNLNKPVLFTDGLSPHVDSVFFQHLTPTQSTWDQWGWGWIPQACLSVVQGTQFSPYDIEVYNVHYTDCASAVVMCRHNQAQMSIINMIDAFGRVPIHDRQWTQHILALPASSCSAGTGGAVTTFYGPCYIPSVFVHELTHTLDAYVNDQTGSTGSVHVYSTTSSYLNSVNQDSCVPDGYANTSPQEDYAQTSVLALYEKVNPGGLDPIGNWRCLVNAKNNLDSIIGQELTPGGSCTHRWADSAIVCMGPAAGCASSKRGFSTRRGARVAGPKPEPANKKGDPLVSNLTPDLTSAVNAKIDDFSHLVSNHTASIEATIRINAWNKAAGKKTVPVPTA | -0.67 | 0.19 | – | – | –
IFF21365 (protein) DDTLSKPALTDNLDYLLDGNVASLPSNGGPYWGKWEDGLMPADCKSIAEDQGLNPTDFEVWDIFFDDCQDGWSFCRHKDSADSFETLVDTFGRVPVRMRSWVRHVLTIPGDNWAFNSNGNICFSGTTSQNLDVALHETGHSLDLLGAYGDGALSSSQEWLDAYNADSNVPDNYARSNQVENVAQNTVVAVYDKNVPGGFPGVQTDYAKIQNQYTLVEDKAGDQIVPGGTCDRHLENSETVPMSGSSAKRDIRIKGRAVGAGAVTHDWKFKGTYSNIVTDFEPFNSKDFHH | 1.04 | – | 0.38 | 0.61 | –
IFF21335 (protein) TLDKPVIQPNFPGNGLASLGQGLLDNLAPTHSTWDDWGAGWIPQDCKTLVEGAGFSASDVIPFNIHYDDCAQTWTFCRHKDSPLSEVQILDLFGRLPVRMRSFVRHLVFIPGNKSAGSSGDNVLMTGPVDITVYAHEIGHSLDSHAFDPSYGVPFSTGNVWISNYNLDSAVTDPYAQTSQQENFAQETVVSLYDKVVPGGIGTIQSNWQAIFHQYATLEGYIGDVIIPGGTCTHRLTDSPAVPMSGSAKLRRGLGPKPHVALSPEVEEIEAIPMKSSITMTSFDEAGKPNGTYVINL | 0.67 | – | 0.3 | 0.66 | –
IFF21360 (protein) RLDKPVIKPPFPNGGGLGSLGPDLMSSLPIAAHTTSDWDSDHLPRDCKRLAQSAGFSPLDVDAFNIRFDDCKQQPWVFCRHKDAPLSKSNMTELFGRLPVRMRQYIRHIIALPGQRSAGSAGDNIQMNGDCEITVFIHETGHSLDSHAFDPKHGVPFSNSPVWKDAYDKDTAVTDDYAQTSQQENFAQETVVAVYDKNVKGGGIGKIQPNAQAIRNAYTTLEKYIGDIIIPGGECTHRLENSPAVPKVDSARTRLVAKSEPVGEGLTRIEPIPMGPITLARY | -0.58 | 0.62 | – | 0.66 | –
IFF21359 (protein) TLDKPVIKPPFPNGGLGSLGPDLMSSLPIAAHTTTDWDADHLPRDCKTLAQGAGFSPLDVSAFDIHYDDCKAQPWVFCRHKDSPLSKTDMTELFGRLPVRMRQFIRHIIALPGQRSAGSAGDNIQMNGDCEITVFIHETGHSLDSHAFDPKLGVPFSNGKAWTDAYHKDTAVTDDYGRTSQQENFAQETVVSVYDKNVEGGIGKIQPNAQAIRNAYTTLETYIGNIIIPGGECTHRLENSPSVPKADSARTRLVARAEPVGEGLTRIEPVPFGPILSVRY | 1.3 | – | 0.61 | 0.68 | –
IFF21352 (protein) NLNKPVIQPNFPSLAPGLMSHLSPTHSTWDDWGAGWIPRDCKSMVQGAGFSPNDIIPFNIHYDDCGQTWTFCRHKKSPLSELQILDMFGRLPVRMRSFIRHMVFVPGTRSAGSNGDNILVVGDGDITLFAHEIGHSLDSHAFDPSYGVPFSTGNVWVSNYNLDSAVSDSYAQSSQQENFAQETVISLFDKVVPGGIGTIQPNWRAIFHQYATLQGYIGNVIIPGGTCTHRLTDSPPVPMSGSAKSRRGLGLKPDVSLTPEVKEIEAIPMESSITMTSFNEQGKPSGTYVIHLK | -0.63 | 0.42 | – | – | –
IFF21375 (protein) QTLDKPALTPNLDYLLQGNTDNLQPAASHYGKWEDGWIPADCKSIAEDQQLNPTDFEVYDVFYGDCGDAWSFCRHKSSSDSIDTIIDTFGRVPVRMRSWVRHVLTIPGDNWAFNSNGNIAFSGTTSQNLDVALHETGHSLDLLGAYGETLSSSQTWLDNYNQDPNVPDEYARSNQVENVAQNTVVGIYDKVVPGGFGSVQPNWGNIFHQYSTLQSMAKDTIIPGGTCDRHLANSETVSMASTQSNATRMARIRRVKPSHSFRQTYDNIVEGFTPFSTKDTCHFSWA | 1.08 | – | 0.42 | 0.63 | –
IFF21338 (protein) NLNKPVITPNFPGNGLASLGPGLMNNLAPTHSTWDDWGAGWIPSDCKSMVQGAGFSPNDIIPFNIHYDDCAQTWTFCRHKNSPLSEIQILDIFGRLPVRMRQFVRHLVFVPGNKSAGSNGDNVLMVGDVDVTVFAHEIGHSLDSHAFDPSYGVPFSTGNVWVSNYNLDSAVPDPYAQSSQQENFAQQTVVSLYDKVVPGGIGTIQPNWQAIFHQYATLEGYIGNVIIPGGTCTHRLTDSAPVTMSGSKKSRRALGPKPKVSLSPEVKEIEAIPMESSITMTSFDEHGKPNGTYVIHL | 1.11 | – | 0.59 | 0.6 | –
IFF21339 (protein) NLNKPVITPNFPGNGLASLGPGLMNNLAPTHSTWDDWGAGWIPSDCKSMVQGAGFSPNDIIPFNIHYDDCAQTWTFCRHKNSPLSEIQILDIFGRLPVRMRQFVRHLVFVPGNKSAGSNGDNVLMVGDVDVTVFAHEIGHSLDSHAFDSSYGVPFSTGNVWVSNYNLDSAVPDPYAQSSQQENFAQQTVVSLYDKVVPGGIGTIQPNWQAIFHQYATLEGYIGNVIIPGGTCTHRLTDSAPVTMSGSKKSRRALGPKPKVSLSPKVKEIEAIPMESSITMTSFDEHGKPNGTYVIHL | -0.05 | – | – | – | 0.53
IFF21336 (protein) NLNKPVITPNFPGNGLASLGQGLMDHLAPTHSTWDDWGAGWIPQDCKSMVQGAGFSPNDIIPFNIHYDDCAQTWTFCRHKNSPLSEIQILDIFGRLPVRMRQFVRHLVFVPGNKSAGSNGDNVLMVGDVDVTVFAHEIGHSLDSHAFDPSYGVPFSTGNVWVSNYNLDSAVPDPYAQSSQQENFAQQTVVSIYDKVVPGGIGTIQPNWQAIFHQYATLEGYIGNVIIPGGTCTHRLTDSAPVTMSGSKKSRRALGPKPKVSLSPKVKEIEAIPMESSITMTSFDEHGKPNGTYVVHL | -0.34 | – | – | – | 0.36
IFF21340 (protein) NLNKPVITPNFPGNGLASLGPGLMNNLAPTHSTWDDWGAGWIPADCKSMVQGAGFSPNDIIPFNIHYDDCAQSWTFCRHKNSPLSEIQILDIFGRLPVRMRQFVRHLVFVPGNKSAGSNGDNVLMVGDVDVTVFAHEIGHSLDSHAFDPSYGVPFSTGNVWVSNYNLDSAVPDPYAQSSQQENFAQQTVVSIYDKVVPGGIGTIQPNWQAIFHQYATLEGYIGNVIIPGGTCTHRLTDSAPVTMSGSKKSRRALGPKPKVSLSPKVKEIEAIPMESSITMTSFDEHGKPNGTYVVHL | -0.31 | – | – | 0.33 | 0.37
IFF21337 (protein) NLNKPVITPNFPGNGLASLGQGLMDHLAPTHSTWDDWGAGWIPSDCKSMVQGAGFSPNDIIPFNIHYDDCAQSWTFCRHKNSPLSEVQILDIFGRLPVRMRQFVRHLVFVPGNKSAGSNGDNVLMVGDVDVTVFAHEIGHSLDSHAFDPSYGVPFSTGNVWVSNYNLDSAVPDPYAQSSQQENFAQETVVSLYDKAVPGGIGTIQPNWQAIFHQYATLEGYIGDVIIPGGTCTHRLTDSAPVTMSGSKKSRRALGPKPKVSLSPKVKEIEAIPMESSITMTSFDEHGKPNGTYVVHL | 0.9 | – | 0.52 | – | –
IFF21378 (protein) LDKPALTPDLDYLLDGNTANLPQNGGAHWGKWEDGLMPEDCKSIAEGQDLNPADFEVYDVFYDDCQDAWSFCRHKDSPEDLETLVNTFGRVPVRMRSWVRHVLSIPGNNWAFNSNGNIALSGTTTHNLDVCLHETGHSLDLLGAYVDGALSSTQEWEDAYNKDSAVPDNYARTNQVENVAQNTVVGIYDKVVPGGFPGVQSESQKIENQYKLLQDKAGEQILPGGTCDRHLQNSATVSIKSSSKRENKVVKAREAHDSALKGTYTNIVKEFTPFNTKDFHEEH | -0.6 | 0.1 | – | 0.52 | –
IFF21349 (protein) VLDKPVIQPNFPGGGLDSLSQGLLDNLAPTQSTWDEWGAGWIPQDCKTLAEGSGFSALDITTFNIYYTDCADAWVFCRHKDAPLSEIDMIDLFGRMPVRMRDFVRHIIAVPGNPSAGSSGDNIQMNGGLPITVFVHETGHSLDSHAFSEPFSLSQAWIDAYNQDSAVPDSYAQTSQQENFAQETVVALYDKVVPGGVGTIQPNWNAIFHAYATLQGYIGDVIIPGGTCVNRLTNSAPVPQSNSAKVRIASEKPDVTLRGNVTVLESIPMGSSIELTHFDAEGKPTGRSTVNLG | 0.02 | – | – | – | 0.56
